Target: complement factor C1q (Sigma, C1740) (UniProt P02745)
Assay: flow cytometry, C1q on antibody-coated BT-474 cells

Sequence of complement factor C1q (Sigma, C1740) (P02745 23-245, chain 1 of 3): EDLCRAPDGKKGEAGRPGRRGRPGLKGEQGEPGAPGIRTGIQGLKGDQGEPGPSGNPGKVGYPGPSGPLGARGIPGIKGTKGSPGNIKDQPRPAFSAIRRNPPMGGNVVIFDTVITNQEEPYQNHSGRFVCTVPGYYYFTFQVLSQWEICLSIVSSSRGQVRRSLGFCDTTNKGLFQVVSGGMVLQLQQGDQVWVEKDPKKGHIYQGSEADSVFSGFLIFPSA
Sequence of complement factor C1q (Sigma, C1740) (P02746 28-253, chain 2 of 3, further chain): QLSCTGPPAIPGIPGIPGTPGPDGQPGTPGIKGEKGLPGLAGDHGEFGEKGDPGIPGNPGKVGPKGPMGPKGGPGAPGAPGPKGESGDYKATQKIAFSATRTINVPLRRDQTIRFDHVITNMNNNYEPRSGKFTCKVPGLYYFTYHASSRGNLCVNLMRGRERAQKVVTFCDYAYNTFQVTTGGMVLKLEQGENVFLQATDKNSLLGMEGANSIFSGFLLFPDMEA
Sequence of complement factor C1q (Sigma, C1740) (P02747 29-245, chain 3 of 3, further chain): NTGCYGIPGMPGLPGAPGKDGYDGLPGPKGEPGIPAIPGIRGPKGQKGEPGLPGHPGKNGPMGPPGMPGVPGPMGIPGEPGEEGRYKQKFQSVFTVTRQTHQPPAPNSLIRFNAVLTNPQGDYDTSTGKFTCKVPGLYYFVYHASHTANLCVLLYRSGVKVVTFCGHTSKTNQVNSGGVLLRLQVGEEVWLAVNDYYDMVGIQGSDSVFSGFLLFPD

PE-signal (geomean): 2160
Substance: combination of trastuzumab and pertuzumab

Reference: patent US20180291110A1
